Results reported in publication PMC10786891, “Massively parallel profiling of RNA-targeting CRISPR-Cas13d”.

T1: EsCas13d, nuclease-dead (Eubacterium siraeum, UniProt B0MS50, R295A;H300A;R849A;H854A)
T1 sequence: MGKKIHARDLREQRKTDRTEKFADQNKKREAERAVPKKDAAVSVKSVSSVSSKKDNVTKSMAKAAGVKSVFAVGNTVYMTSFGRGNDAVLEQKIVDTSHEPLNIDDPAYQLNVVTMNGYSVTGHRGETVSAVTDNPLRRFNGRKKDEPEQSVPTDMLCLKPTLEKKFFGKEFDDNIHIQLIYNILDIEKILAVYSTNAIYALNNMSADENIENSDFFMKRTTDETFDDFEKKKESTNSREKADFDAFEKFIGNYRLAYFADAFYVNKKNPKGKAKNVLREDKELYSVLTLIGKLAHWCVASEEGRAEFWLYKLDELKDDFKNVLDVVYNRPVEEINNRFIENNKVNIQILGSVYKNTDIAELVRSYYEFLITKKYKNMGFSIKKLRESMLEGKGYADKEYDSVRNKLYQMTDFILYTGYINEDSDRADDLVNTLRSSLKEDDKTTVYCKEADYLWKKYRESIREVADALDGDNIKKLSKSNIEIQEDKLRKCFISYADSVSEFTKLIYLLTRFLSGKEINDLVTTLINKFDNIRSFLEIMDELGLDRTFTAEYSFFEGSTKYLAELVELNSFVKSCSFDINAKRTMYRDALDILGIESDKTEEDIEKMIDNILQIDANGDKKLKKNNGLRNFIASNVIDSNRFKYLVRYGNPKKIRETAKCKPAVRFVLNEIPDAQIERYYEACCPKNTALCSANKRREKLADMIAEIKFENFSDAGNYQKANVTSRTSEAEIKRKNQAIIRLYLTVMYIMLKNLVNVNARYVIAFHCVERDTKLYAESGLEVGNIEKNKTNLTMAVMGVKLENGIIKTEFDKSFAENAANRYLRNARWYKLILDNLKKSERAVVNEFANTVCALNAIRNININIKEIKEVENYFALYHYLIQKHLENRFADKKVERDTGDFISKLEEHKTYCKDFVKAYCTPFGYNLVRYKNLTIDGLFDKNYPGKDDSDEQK

B1: target 1 C2U,G15U (mixed)
RNA 1: CACCCGUGCAAAAAUGCAGGGGUCUAAAACUGAGCGGAUAACCUCUCUAUGG
RNA 2: GGGAAUGGAUCCACAUCUACGAAUUCGUACCAUAGAUAGGUUAUCCGCUUACCGAGAUCGGAAGAGCACACGU
B2: target 1 insC 3' of 14,insU 3' of 14 (mixed)
RNA 1: CACCCGUGCAAAAAUGCAGGGGUCUAAAACUGAGCGGAUAACCUCUCUAUGG
RNA 2: GGGAAUGGAUCCACAUCUACGAAUUCGUACCAUAGAGACUGGUUAUCCGCUCACCGAGAUCGGAAGAGCACACGU
B3: target 1 A9U,C22U (mixed)
RNA 1: CACCCGUGCAAAAAUGCAGGGGUCUAAAACUGAGCGGAUAACCUCUCUAUGG
RNA 2: GGGAAUGGAUCCACAUCUACGAAUUCGUAUCAUAGAGAGGUUUUCCGCUCACCGAGAUCGGAAGAGCACACGU
B4: target 3 insA 3' of 8,insA 3' of 8 (mixed)
RNA 1: CACCCGUGCAAAAUUGCAGGGGUCUAAAACGACCUGAAUAUUUCAGAUCAAA
RNA 2: GGGAAUGGAUCCACAUCUACGAAUUCGUUUUUGAUCUGAAAUAUAAUCAGGUCUGCAGAUCGGAAGAGCACACGU
B5: target 3 insA 3' of 22,insU 3' of 3 (mixed)
RNA 1: CACCCGUGCAAAAUUGCAGGGGUCUAAAACGACCUGAAUAUUUCAGAUCAAA
RNA 2: GGGAAUGGAUCCACAUCUACGAAUUCGUUUAUUGAUCUGAAAUAUUCAGGUUCUGCAGAUCGGAAGAGCACACGU
B6: target 3 insA 3' of 7,insA 3' of 4 (mixed)
RNA 1: CACCCGUGCAAAAUUGCAGGGGUCUAAAACGACCUGAAUAUUUCAGAUCAAA
RNA 2: GGGAAUGGAUCCACAUCUACGAAUUCGUUUUUGAUCUGAAAUAUUACAGAGUCUGCAGAUCGGAAGAGCACACGU
B7: target 3 A11G,U22A (mixed)
RNA 1: CACCCGUGCAAAAUUGCAGGGGUCUAAAACGACCUGAAUAUUUCAGAUCAAA
RNA 2: GGGAAUGGAUCCACAUCUACGAAUUCGUUAUUGAUCUGAAGUAUUCAGGUCUGCAGAUCGGAAGAGCACACGU
B8: target 3 insA 3' of 8,insC 3' of 5 (mixed)
RNA 1: CACCCGUGCAAAAUUGCAGGGGUCUAAAACGACCUGAAUAUUUCAGAUCAAA
RNA 2: GGGAAUGGAUCCACAUCUACGAAUUCGUUUUUGAUCUGAAAUAUAUCACGGUCUGCAGAUCGGAAGAGCACACGU
B9: target 3 C6A,U8G (mixed)
RNA 1: CACCCGUGCAAAAUUGCAGGGGUCUAAAACGACCUGAAUAUUUCAGAUCAAA
RNA 2: GGGAAUGGAUCCACAUCUACGAAUUCGUUUUUGAUCUGAAAUAGUAAGGUCUGCAGAUCGGAAGAGCACACGU
B10: target 3 insU 3' of 6,insA 3' of 2 (mixed)
RNA 1: CACCCGUGCAAAAUUGCAGGGGUCUAAAACGACCUGAAUAUUUCAGAUCAAA
RNA 2: GGGAAUGGAUCCACAUCUACGAAUUCGUUUUUGAUCUGAAAUAUUCUAGGUACUGCAGAUCGGAAGAGCACACGU
B11: target 3 insU 3' of 5,insU 3' of 4 (mixed)
RNA 1: CACCCGUGCAAAAUUGCAGGGGUCUAAAACGACCUGAAUAUUUCAGAUCAAA
RNA 2: GGGAAUGGAUCCACAUCUACGAAUUCGUUUUUGAUCUGAAAUAUUCAUGUGUCUGCAGAUCGGAAGAGCACACGU
B12: target 3 insG 3' of 6,insU 3' of 5 (mixed)
RNA 1: CACCCGUGCAAAAUUGCAGGGGUCUAAAACGACCUGAAUAUUUCAGAUCAAA
RNA 2: GGGAAUGGAUCCACAUCUACGAAUUCGUUUUUGAUCUGAAAUAUUCGAUGGUCUGCAGAUCGGAAGAGCACACGU
B13: target 3 insC 3' of 13,insU 3' of 5 (mixed)
RNA 1: CACCCGUGCAAAAUUGCAGGGGUCUAAAACGACCUGAAUAUUUCAGAUCAAA
RNA 2: GGGAAUGGAUCCACAUCUACGAAUUCGUUUUUGAUCUGACAAUAUUCAUGGUCUGCAGAUCGGAAGAGCACACGU
B14: target 3 insC 3' of 7,insG 3' of 5 (mixed)
RNA 1: CACCCGUGCAAAAUUGCAGGGGUCUAAAACGACCUGAAUAUUUCAGAUCAAA
RNA 2: GGGAAUGGAUCCACAUCUACGAAUUCGUUUUUGAUCUGAAAUAUUCCAGGGUCUGCAGAUCGGAAGAGCACACGU
B15: target 3 insA 3' of 21,insA 3' of 4 (mixed)
RNA 1: CACCCGUGCAAAAUUGCAGGGGUCUAAAACGACCUGAAUAUUUCAGAUCAAA
RNA 2: GGGAAUGGAUCCACAUCUACGAAUUCGUUUUAUGAUCUGAAAUAUUCAGAGUCUGCAGAUCGGAAGAGCACACGU
B16: target 3 insG 3' of 8,insA 3' of 2 (mixed)
RNA 1: CACCCGUGCAAAAUUGCAGGGGUCUAAAACGACCUGAAUAUUUCAGAUCAAA
RNA 2: GGGAAUGGAUCCACAUCUACGAAUUCGUUUUUGAUCUGAAAUAUGUCAGGUACUGCAGAUCGGAAGAGCACACGU
B17: target 3 U2C,A5C (mixed)
RNA 1: CACCCGUGCAAAAUUGCAGGGGUCUAAAACGACCUGAAUAUUUCAGAUCAAA
RNA 2: GGGAAUGGAUCCACAUCUACGAAUUCGUUUUUGAUCUGAAAUAUUCCGGCCUGCAGAUCGGAAGAGCACACGU
B18: target 3 insG 3' of 9,insG 3' of 6 (mixed)
RNA 1: CACCCGUGCAAAAUUGCAGGGGUCUAAAACGACCUGAAUAUUUCAGAUCAAA
RNA 2: GGGAAUGGAUCCACAUCUACGAAUUCGUUUUUGAUCUGAAAUAGUUCGAGGUCUGCAGAUCGGAAGAGCACACGU
B19: target 3 G3U,A12G (mixed)
RNA 1: CACCCGUGCAAAAUUGCAGGGGUCUAAAACGACCUGAAUAUUUCAGAUCAAA
RNA 2: GGGAAUGGAUCCACAUCUACGAAUUCGUUUUUGAUCUGAGAUAUUCAGUUCUGCAGAUCGGAAGAGCACACGU
B20: target 3 G4C,C6A (mixed)
RNA 1: CACCCGUGCAAAAUUGCAGGGGUCUAAAACGACCUGAAUAUUUCAGAUCAAA
RNA 2: GGGAAUGGAUCCACAUCUACGAAUUCGUUUUUGAUCUGAAAUAUUAACGUCUGCAGAUCGGAAGAGCACACGU
B21: target 3 insC 3' of 9,insA 3' of 3 (mixed)
RNA 1: CACCCGUGCAAAAUUGCAGGGGUCUAAAACGACCUGAAUAUUUCAGAUCAAA
RNA 2: GGGAAUGGAUCCACAUCUACGAAUUCGUUUUUGAUCUGAAAUACUUCAGGAUCUGCAGAUCGGAAGAGCACACGU
B22: target 3 G4C,U22A (mixed)
RNA 1: CACCCGUGCAAAAUUGCAGGGGUCUAAAACGACCUGAAUAUUUCAGAUCAAA
RNA 2: GGGAAUGGAUCCACAUCUACGAAUUCGUUAUUGAUCUGAAAUAUUCACGUCUGCAGAUCGGAAGAGCACACGU
B23: target 3 insU 3' of 5 (mixed)
RNA 1: CACCCGUGCAAAAUUGCAGGGGUCUAAAACGACCUGAAUAUUUCAGAUCAAA
RNA 2: GGGAAUGGAUCCACAUCUACGAAUUCGUUUUUGAUCUGAAAUAUUCAUGGUCUGCAGAUCGGAAGAGCACACGU
B24: target 3 insC 3' of 11,insA 3' of 10 (mixed)
RNA 1: CACCCGUGCAAAAUUGCAGGGGUCUAAAACGACCUGAAUAUUUCAGAUCAAA
RNA 2: GGGAAUGGAUCCACAUCUACGAAUUCGUUUUUGAUCUGAAACUAAUUCAGGUCUGCAGAUCGGAAGAGCACACGU
B25: target 3 insA 3' of 6,insU 3' of 1 (mixed)
RNA 1: CACCCGUGCAAAAUUGCAGGGGUCUAAAACGACCUGAAUAUUUCAGAUCAAA
RNA 2: GGGAAUGGAUCCACAUCUACGAAUUCGUUUUUGAUCUGAAAUAUUCAAGGUCUUGCAGAUCGGAAGAGCACACGU
B26: target 3 A18G,U22G (mixed)
RNA 1: CACCCGUGCAAAAUUGCAGGGGUCUAAAACGACCUGAAUAUUUCAGAUCAAA
RNA 2: GGGAAUGGAUCCACAUCUACGAAUUCGUUGUUGGUCUGAAAUAUUCAGGUCUGCAGAUCGGAAGAGCACACGU
B27: target 3 G19U,U20A (mixed)
RNA 1: CACCCGUGCAAAAUUGCAGGGGUCUAAAACGACCUGAAUAUUUCAGAUCAAA
RNA 2: GGGAAUGGAUCCACAUCUACGAAUUCGUUUUAUAUCUGAAAUAUUCAGGUCUGCAGAUCGGAAGAGCACACGU
B28: target 3 insG 3' of 16,insU 3' of 1 (mixed)
RNA 1: CACCCGUGCAAAAUUGCAGGGGUCUAAAACGACCUGAAUAUUUCAGAUCAAA
RNA 2: GGGAAUGGAUCCACAUCUACGAAUUCGUUUUUGAUCGUGAAAUAUUCAGGUCUUGCAGAUCGGAAGAGCACACGU

target: T1, EsCas13d, nuclease-dead; assay: crRNA (strand 1, pre-loaded); Mg2+; 40 mM Tris-HCl pH 7.5, 150 mM NaCl, 6 mM MgCl2, 1 mM DTT, 0.1% Tween-20, 0.2 mg/ml BSA; 25 C; 10 min per concentration, then washed; conditions: tags: His6-TwinStrep-SUMO cleaved; N-terminal SNAP kept (SNAP-Surface 488); label: 3' end held by stalled T7 RNA polymerase

**Q.** B1 was tested. Which Kd did it give?
**A.** 29 ± 4 nM

**Q.** For B2, which Kd is on record?
**A.** 50 ± 12 nM

**Q.** With B3 as the binder, how does the Kd read?
**A.** 24 ± 4 nM

**Q.** With B4 as the binder, how does the Kd read?
**A.** 63 ± 8.5 nM

**Q.** How did the Kd turn out when B5 was run?
**A.** 23.1 ± 3.65 nM

**Q.** B6 was tested. Which Kd did it give?
**A.** 66 ± 12 nM

**Q.** How did the Kd turn out when B7 was run?
**A.** 67 ± 15 nM

**Q.** With B8 as the binder, how does the Kd read?
**A.** 51 ± 5 nM

**Q.** For B9, which Kd is on record?
**A.** 65 ± 7.5 nM

**Q.** With B10 as the binder, how does the Kd read?
**A.** 47 ± 14 nM

**Q.** Which Kd does the source give for B11 here?
**A.** 2 ± 0.23 nM

**Q.** B12 was tested. Which Kd did it give?
**A.** 7.59 ± 0.605 nM

**Q.** B13 was tested. Which Kd did it give?
**A.** 100 ± 40 nM

**Q.** B14 was tested. Which Kd did it give?
**A.** 58.5 ± 9.5 nM

**Q.** Which Kd does the source give for B15 here?
**A.** ~81.5 nM

**Q.** Which Kd does the source give for B16 here?
**A.** 67.5 ± 17 nM

**Q.** B17 was tested. Which Kd did it give?
**A.** 105 ± 18.5 nM

**Q.** For B18, which Kd is on record?
**A.** 71 ± 10 nM

**Q.** B19 was tested. Which Kd did it give?
**A.** 86 ± 15 nM

**Q.** B20 was tested. Which Kd did it give?
**A.** 26.6 ± 1.85 nM

**Q.** B21 was tested. Which Kd did it give?
**A.** 83.5 ± 14 nM

**Q.** With B22 as the binder, how does the Kd read?
**A.** 10.7 ± 1 nM

**Q.** B23 was tested. Which Kd did it give?
**A.** 6.55 ± 0.65 nM

**Q.** How did the Kd turn out when B24 was run?
**A.** 46.5 ± 16.5 nM

**Q.** Which Kd does the source give for B25 here?
**A.** 31.9 ± 5.8 nM

**Q.** With B26 as the binder, how does the Kd read?
**A.** 64 ± 10 nM

**Q.** For B27, which Kd is on record?
**A.** 90 ± 27 nM

**Q.** For B28, which Kd is on record?
**A.** 74 ± 24 nM
